Test results reported in patent publication US20090226466A1.

How the values were obtained:
[1] = molecular target: murine FcγRIII on cells (murine) (UniProt P08508); assay: cell-based or functional assay
[2] = molecular target: soluble form of murine NKG2D representing residues 88-232, N'-FLAG tagged (murine) (UniProt O54709); assay: ELISA, mNKG2D immobilized on plate, goat anti-mouse F(ab')2-HRP detection
[3] = molecular target: full-length murine NKG2D on cells (murine) (UniProt O54709); assay: cell-based or functional assay
[4] = molecular target: human NKG2D on CHO transfectant cells (human) (UniProt P26718); assay: flow cytometry on human NKG2D-CHO transfectant cells
Chain of UniProt P26718 (P26718 whole entry): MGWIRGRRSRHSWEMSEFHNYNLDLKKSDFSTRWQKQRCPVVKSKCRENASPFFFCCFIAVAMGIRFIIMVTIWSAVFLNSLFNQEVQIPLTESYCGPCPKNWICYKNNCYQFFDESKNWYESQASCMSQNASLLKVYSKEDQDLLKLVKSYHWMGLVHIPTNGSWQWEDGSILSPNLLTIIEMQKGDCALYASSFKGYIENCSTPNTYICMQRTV

[5] = molecular target: full-length murine NKG2D on cells (murine) (UniProt O54709); assay: flow cytometry on stable mNKG2D transfectant HEK293 cells
[6] = molecular target: full-length murine NKG2D on cells (murine) (UniProt O54709); assay: flow cytometry on NK cells from mouse splenocytes, biotinylated antibody and streptavidin
[7] = molecular target: full-length murine NKG2D on cells (murine) (UniProt O54709); assay: flow cytometry on stable mNKG2D transfectant HEK293 cells, isotype control

Chain of UniProt P08508 (P08508 31-261): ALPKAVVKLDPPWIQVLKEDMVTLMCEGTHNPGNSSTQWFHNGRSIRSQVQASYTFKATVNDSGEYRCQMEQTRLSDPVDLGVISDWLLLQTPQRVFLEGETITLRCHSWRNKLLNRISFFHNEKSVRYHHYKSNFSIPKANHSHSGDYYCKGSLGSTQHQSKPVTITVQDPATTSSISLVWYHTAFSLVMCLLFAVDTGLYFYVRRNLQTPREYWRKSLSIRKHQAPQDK

EC50 [2] [pM] | MFI [4] [MFI] | MFI [5] [MFI] | MFI [6] [MFI] | MFI [7] [MFI] | Substance | killing of BT474 cells by murine DX5+ NK cells (lactate dehydrogenase release), E:T ratio of 50:1, 6.7 nM antibody [1] [%] | killing of BT474 cells by murine DX5+ NK cells (lactate dehydrogenase release), E:T ratio of 50:1, 6.7 nM antibody [3] [%] | killing of BT474 cells by splenic NK cells of murine FcγRIII knockout mice, E:T ratio 20:1 [3] [%]
 |  |  |  |  | Anti-HER2 (4D5 mIgG2a) (antibody) | 15 |  | 
300 | 61.7 | 11 |  |  | Anti-HER2*-MicB fusion antibody (D265A + N297A) (from UniProt Q29980 16-297) |  | 15 | 
200 |  | 100 | 48.9 |  | Anti-HER2-H60 fusion antibody |  |  | 10
300 | 61.7 | 11 |  |  | Anti-HER2-MicB fusion antibody (from UniProt Q29980 16-297) |  |  | 10
 |  |  |  | 4 | mouse IgG2a control antibody |  |  | 
